The supplement of paper PMC7877785
± gives the uncertainty stated by the source.

Experiment: self-splicing fitness, log relative to wild type (ln ratio); higher = more splicing; Tetrahymena group I intron in knt gene, E. coli kanamycin selection, DiMSum; sequences stand for … in CUCUCU…GGAGGGAAAAGUUAUCAGGCAUGCACCUGGUAGCUAGUCUUUAAACCAAUAGAUUGCAUCGGUUUAAAAGGCAAGACCGUCAAAUUGCGGGAAAGGGGUCAACAGCCGUUCAGUACCAAGUCUCAGGGGAAACUUUGAGAUGGCCUUGCAAAGGGUAUGGUAAUAAGCUGACGGACAUGGUCCUAACCACGCAGCCAAGUCCUAAGUCAACAGAUCUUCUGUUGAUAUGGAUGCAGUUCACAGACUAAAUGUCGGUCGGGGAAGAUGUAUUCUUCUCAUAAGAUAUAGUCGGACCUCUCCUUAAUGGGAGCUAGCGGAUGAAGUGAUGCAACACUGGAGCCGCUGGGAACUAAUUUGUAUGCGAAAGUAUAUUGAUUAGUUUUGGAGUACUCGUGGUCG
How it was run: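 Fitness was computed with DiMSum as the error-weighted combination of replicate fold changes, kanamycin versus none, each normalised to wild type. The library randomised all eight intron nucleotides of the P1ex region, with the intron placed in the knt kanamycin-resistance gene on pET-22b(+) in E. coli BL21(DE3). Six replicate transformations were grown overnight at 37°C or 30°C on LB agar with or without 25 μg/mL kanamycin, plus 100 μg/mL carbenicillin, 50 μM IPTG and 0.2% rhamnose. Pooled colonies were amplicon-sequenced on an Illumina HiSeq 2500.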

Question: For UUGCAGCAAUAUUACGCGUG, which “self-splicing fitness (ln)” value (30 °C) is on record?
Answer: -3.13 ± 0.14

Question: What about the “self-splicing fitness (ln)” value (37 °C) of the same sequence?
Answer: -2.7 ± 0.17

Question: For UUGCAGCAAUAUUACGCGUU, which “self-splicing fitness (ln)” value (30 °C) is on record?
Answer: -2.41 ± 0.21

Question: And the “self-splicing fitness (ln)” value (37 °C)?
Answer: -1.94 ± 0.18

Question: With UUGCAGCAAUAUUACGCUGG as the sequence, how does the “self-splicing fitness (ln)” value (30 °C) read?
Answer: -3.51 ± 0.32

Question: For UUGCAGCAAUAUUACGCUGU, which “self-splicing fitness (ln)” value (30 °C) is on record?
Answer: -2.71 ± 0.35

Question: And the “self-splicing fitness (ln)” value (37 °C)?
Answer: -1.23 ± 0.32

Question: Which “self-splicing fitness (ln)” value (30 °C) does the source give for UUGCAGCAAUAUUACGGCCA here?
Answer: -0.118 ± 0.16

Question: And the “self-splicing fitness (ln)” value (37 °C)?
Answer: 0.347 ± 0.19

Question: With UUGCAGCAAUAUUACGGGAA as the sequence, how does the “self-splicing fitness (ln)” value (30 °C) read?
Answer: -1.51 ± 0.12

Question: What about the “self-splicing fitness (ln)” value (37 °C) of the same sequence?
Answer: 0.101 ± 0.11

Question: Which results are given for UUGCAGCAAUAUUACGGGCG?
Answer: self-splicing fitness (ln) (30 °C): -0.91 ± 0.11; self-splicing fitness (ln) (37 °C): -0.511 ± 0.11

Question: Which “self-splicing fitness (ln)” value (30 °C) does the source give for UUGCAGCAAUAUUACGGGUA here?
Answer: -1.76 ± 0.097

Question: What about the “self-splicing fitness (ln)” value (37 °C) of the same sequence?
Answer: -0.893 ± 0.087

Question: Which results are given for UUGCAGCAAUAUUACGGUAA?
Answer: self-splicing fitness (ln) (30 °C): -0.988 ± 0.099; self-splicing fitness (ln) (37 °C): -0.0317 ± 0.093

Question: Which “self-splicing fitness (ln)” value (30 °C) does the source give for UUGCAGCAAUAUUACGGUCC here?
Answer: -4.25 ± 0.39

Question: What about the “self-splicing fitness (ln)” value (37 °C) of the same sequence?
Answer: -2.69 ± 0.26

Question: Which results are given for UUGCAGCAAUAUUACGGUUA?
Answer: self-splicing fitness (ln) (30 °C): 0.353 ± 0.082; self-splicing fitness (ln) (37 °C): 0.0359 ± 0.075

Question: For UUGCAGCAAUAUUACGUACC, which “self-splicing fitness (ln)” value (30 °C) is on record?
Answer: -3.54 ± 0.47

Question: And the “self-splicing fitness (ln)” value (37 °C)?
Answer: -2.55 ± 0.33

Question: What does the source list for UUGCAGCAAUAUUACGUAGG?
Answer: self-splicing fitness (ln) (30 °C): -0.924 ± 0.086; self-splicing fitness (ln) (37 °C): -0.486 ± 0.11

Question: For UUGCAGCAAUAUUACGUCAA, which “self-splicing fitness (ln)” value (30 °C) is on record?
Answer: -1.48 ± 0.1

Question: And the “self-splicing fitness (ln)” value (37 °C)?
Answer: -0.523 ± 0.11

Question: With UUGCAGCAAUAUUACGUCAG as the sequence, how does the “self-splicing fitness (ln)” value (30 °C) read?
Answer: -0.419 ± 0.11

Question: And the “self-splicing fitness (ln)” value (37 °C)?
Answer: 0.42 ± 0.14

Question: With UUGCAGCAAUAUUACGUCCC as the sequence, how does the “self-splicing fitness (ln)” value (37 °C) read?
Answer: -1.44 ± 0.37

Question: For UUGCAGCAAUAUUACGUUCA, which “self-splicing fitness (ln)” value (30 °C) is on record?
Answer: -0.896 ± 0.12

Question: And the “self-splicing fitness (ln)” value (37 °C)?
Answer: 0.241 ± 0.12

Question: With UUGGAGCAAUAUUACGACGG as the sequence, how does the “self-splicing fitness (ln)” value (30 °C) read?
Answer: 0.664 ± 0.22

Question: What about the “self-splicing fitness (ln)” value (37 °C) of the same sequence?
Answer: -0.775 ± 0.29

Question: With UUGGAGCAAUAUUACGAUAG as the sequence, how does the “self-splicing fitness (ln)” value (30 °C) read?
Answer: -2.56 ± 0.37

Question: For UUGGAGCAAUAUUACGCCGG, which “self-splicing fitness (ln)” value (37 °C) is on record?
Answer: -1.08 ± 0.34

Question: Which “self-splicing fitness (ln)” value (30 °C) does the source give for UUGGAGCAAUAUUACGCGGU here?
Answer: -2.83 ± 0.26

Question: And the “self-splicing fitness (ln)” value (37 °C)?
Answer: -2.14 ± 0.38

Question: Which “self-splicing fitness (ln)” value (30 °C) does the source give for UUGGAGCAAUAUUACGGCAG here?
Answer: -1.6 ± 0.17

Question: What about the “self-splicing fitness (ln)” value (37 °C) of the same sequence?
Answer: -1.01 ± 0.22

Question: With UUGGAGCAAUAUUACGGGAU as the sequence, how does the “self-splicing fitness (ln)” value (37 °C) read?
Answer: -2.77 ± 0.4

Question: With UUGGAGCAAUAUUACGUAUC as the sequence, how does the “self-splicing fitness (ln)” value (30 °C) read?
Answer: -2.95 ± 0.2

Question: With UUGGAGCAAUAUUACGUAUU as the sequence, how does the “self-splicing fitness (ln)” value (30 °C) read?
Answer: -4.53 ± 0.39

Question: And the “self-splicing fitness (ln)” value (37 °C)?
Answer: -1.7 ± 0.22

Question: With UUGGAGCAAUAUUACGUCUU as the sequence, how does the “self-splicing fitness (ln)” value (37 °C) read?
Answer: -2.09 ± 0.5

Question: For UUGGAGCAAUAUUACGUGUU, which “self-splicing fitness (ln)” value (30 °C) is on record?
Answer: -2.58 ± 0.2

Question: And the “self-splicing fitness (ln)” value (37 °C)?
Answer: -2.79 ± 0.33

Question: With UUGGAGCAAUAUUACGUUGG as the sequence, how does the “self-splicing fitness (ln)” value (30 °C) read?
Answer: -1.5 ± 0.27

Question: And the “self-splicing fitness (ln)” value (37 °C)?
Answer: -2.92 ± 0.28

Question: Which “self-splicing fitness (ln)” value (30 °C) does the source give for UUGUAGCAAUAUUACGAAAA here?
Answer: -1.86 ± 0.17

Question: What about the “self-splicing fitness (ln)” value (37 °C) of the same sequence?
Answer: -0.986 ± 0.19

Question: With UUGUAGCAAUAUUACGAAAU as the sequence, how does the “self-splicing fitness (ln)” value (30 °C) read?
Answer: -3.24 ± 0.46

Question: What about the “self-splicing fitness (ln)” value (37 °C) of the same sequence?
Answer: -2.15 ± 0.4

Question: For UUGUAGCAAUAUUACGAACU, which “self-splicing fitness (ln)” value (30 °C) is on record?
Answer: -2.24 ± 0.11

Question: What about the “self-splicing fitness (ln)” value (37 °C) of the same sequence?
Answer: 0.102 ± 0.1

Question: For UUGUAGCAAUAUUACGAUCC, which “self-splicing fitness (ln)” value (37 °C) is on record?
Answer: -0.641 ± 0.37

Question: With UUGUAGCAAUAUUACGAUUU as the sequence, how does the “self-splicing fitness (ln)” value (30 °C) read?
Answer: -3.15 ± 0.25

Question: What about the “self-splicing fitness (ln)” value (37 °C) of the same sequence?
Answer: -1.91 ± 0.24

Question: For UUGUAGCAAUAUUACGCAUC, which “self-splicing fitness (ln)” value (30 °C) is on record?
Answer: -3.41 ± 0.34

Question: What about the “self-splicing fitness (ln)” value (37 °C) of the same sequence?
Answer: -3.19 ± 0.43

Question: What does the source list for UUGUAGCAAUAUUACGCCAA?
Answer: self-splicing fitness (ln) (30 °C): -1.22 ± 0.13; self-splicing fitness (ln) (37 °C): -0.297 ± 0.13

Question: For UUGUAGCAAUAUUACGCCUG, which “self-splicing fitness (ln)” value (30 °C) is on record?
Answer: 0.32 ± 0.14

Question: And the “self-splicing fitness (ln)” value (37 °C)?
Answer: 0.399 ± 0.15

Question: Which “self-splicing fitness (ln)” value (30 °C) does the source give for UUGUAGCAAUAUUACGCGGG here?
Answer: -3 ± 0.25

Question: And the “self-splicing fitness (ln)” value (37 °C)?
Answer: -2.32 ± 0.16

Question: With UUGUAGCAAUAUUACGGACA as the sequence, how does the “self-splicing fitness (ln)” value (30 °C) read?
Answer: -1.61 ± 0.31

Question: And the “self-splicing fitness (ln)” value (37 °C)?
Answer: -0.454 ± 0.39

Question: What does the source list for UUGUAGCAAUAUUACGGCCG?
Answer: self-splicing fitness (ln) (30 °C): -0.356 ± 0.17; self-splicing fitness (ln) (37 °C): -0.462 ± 0.22

Question: What does the source list for UUGUAGCAAUAUUACGGUCU?
Answer: self-splicing fitness (ln) (30 °C): -2.53 ± 0.21; self-splicing fitness (ln) (37 °C): -1.53 ± 0.17

Question: Which “self-splicing fitness (ln)” value (30 °C) does the source give for UUGUAGCAAUAUUACGGUUG here?
Answer: -2.38 ± 0.12

Question: What about the “self-splicing fitness (ln)” value (37 °C) of the same sequence?
Answer: -0.9 ± 0.12

Question: Which results are given for UUGUAGCAAUAUUACGUACA?
Answer: self-splicing fitness (ln) (30 °C): -1.51 ± 0.2; self-splicing fitness (ln) (37 °C): -0.822 ± 0.17

Question: For UUGUAGCAAUAUUACGUCUG, which “self-splicing fitness (ln)” value (30 °C) is on record?
Answer: -0.639 ± 0.067

Question: And the “self-splicing fitness (ln)” value (37 °C)?
Answer: 0.19 ± 0.086

Question: Which “self-splicing fitness (ln)” value (30 °C) does the source give for UUGUAGCAAUAUUACGUUUU here?
Answer: -2.52 ± 0.24

Question: What about the “self-splicing fitness (ln)” value (37 °C) of the same sequence?
Answer: -1.98 ± 0.17

Question: Which results are given for UUUAAGCAAUAUUACGAACU?
Answer: self-splicing fitness (ln) (30 °C): -2.51 ± 0.23; self-splicing fitness (ln) (37 °C): -1.98 ± 0.23

Question: With UUUAAGCAAUAUUACGACAC as the sequence, how does the “self-splicing fitness (ln)” value (30 °C) read?
Answer: -2.23 ± 0.44

Question: What does the source list for UUUAAGCAAUAUUACGACCU?
Answer: self-splicing fitness (ln) (30 °C): -1.72 ± 0.21; self-splicing fitness (ln) (37 °C): -1.3 ± 0.18

Question: With UUUAAGCAAUAUUACGAGCC as the sequence, how does the “self-splicing fitness (ln)” value (30 °C) read?
Answer: -1.83 ± 0.36

Question: For UUUAAGCAAUAUUACGAGUC, which “self-splicing fitness (ln)” value (37 °C) is on record?
Answer: -2.65 ± 0.48

Question: With UUUAAGCAAUAUUACGAUAU as the sequence, how does the “self-splicing fitness (ln)” value (30 °C) read?
Answer: -2.91 ± 0.14

Question: And the “self-splicing fitness (ln)” value (37 °C)?
Answer: -1.52 ± 0.14

Question: Which “self-splicing fitness (ln)” value (30 °C) does the source give for UUUAAGCAAUAUUACGAUUU here?
Answer: -1.92 ± 0.16

Question: And the “self-splicing fitness (ln)” value (37 °C)?
Answer: -0.754 ± 0.13
